Assays:
[1] = substrate: NC(=O)C1=CN([C@@H]2O[C@H](COP(=O)(O)OP(=O)(O)OC[C@H]3O[C@@H](n4cnc5c(N)ncnc54)[C@H](OP(=O)(O)O)[C@@H]3O)[C@@H](O)[C@H]2O)C=CC1; test: purified protein, by the assay type
purified protein = substrate: NC(=O)C1=CN([C@@H]2O[C@H](COP(=O)(O)OP(=O)(O)OC[C@H]3O[C@@H](n4cnc5c(N)ncnc54)[C@H](OP(=O)(O)O)[C@@H]3O)[C@@H](O)[C@H]2O)C=CC1; test: purified protein; conditions: pH 7.1

Protein	Km [1]	Km (purified protein)
AtPORA (Arabidopsis thaliana) (protein) QAIATSTPSVTKSSLDRKKTLRKGNVVVTGASSGLGLATAKALAETGKWHVIMACRDFLKAERAAQSAGMPKDSYTVMHLDLASLDSVRQFVDNFRRAEMPLDVLVCNAAVYQPTANQPTFTAEGFELSVGINHLGHFLLSRLLIDDLKNSDYPSKRLIIVGSITGNTNTLAGNVPPKANLGDLRGLAGGLNGLNSSAMIDGGDFVGAKAYKDSKVCNMLTMQEFHRRFHEDTGITFASLYPGCIATTGLFREHIPLFRTLFPPFQKYITKGYVSESEAGKRLAQVVADPSLTKSGVYWSWNKTSASFENQLSQEASDVEKARRVWEVSEKLVGLA	2.47 µM	–
TaPOR1 (Triticum aestivum) (protein) GVVVITGASSGLGLAAAKALAETGKWHVVMACRDFLKASKAAKAAGMADGSYTVMHLDLASLDSVRQFVDAFRRAEMPLDVLVCNAAIYRPTARTPTFTADGHEMSVGVNHLGHFLLARLLMEDLQKSDYPSRRMVIVGSITGNSNTLAGNVPPKASLGDLRGLAGGLSGASGSAMIDGDESFDGAKAYKDSKVCNMLTMQEFHRRYHEETGITFSSLYPGCIATTGLFREHIPLFRTLFPPFQKFVTKGFVSEAESGKRLAQVVAEPSLTKSGVYWSWNKDSASFENQLSQEASDPEKARKVWELSEKLVGLA	39.67 µM	–
SynPOR (Synechocystis sp. PCC 6803 substr. Kazusa) (protein) MEQPMKPTVIITGASSGVGLYGAKALIDKGWHVIMACRNLDKTQKVADELGFPKDSYTIIKLDLGYLDSVRRFVAQFRELGRPLKALVCNAAVYFPLLDEPLWSADDYELSVATNHLGHFLLCNLLLEDLKACPDADKRLIILGTVTANSKELGGKIPIPAPPDLGNFEGFEAGFKKPIAMINNKKFKSGKAYKDSKLCNMLTTRELHRRFHQETGIVFNSLYPGCVADTPLFRNHYSLFRTIFPWFQKNVTKGYVSQELAGERVAMVVADDKFKDSGVHWSWGNRQQAGREAFVQELSEQGSDAQKAQRMWDLSEKLVGLV	12.85 µM	–
AtPORB (Arabidopsis thaliana) (protein) QTAATSSPTVTKSVDGKKTLRKGNVVVTGASSGLGLATAKALAETGKWNVIMACRDFLKAERAAKSVGMPKDSYTVMHLDLASLDSVRQFVDNFRRTETPLDVLVCNAAVYFPTAKEPTYSAEGFELSVATNHLGHFLLARLLLDDLKKSDYPSKRLIIVGSITGNTNTLAGNVPPKANLGDLRGLAGGLNGLNSSAMIDGGDFDGAKAYKDSKVCNMLTMQEFHRRFHEETGVTFASLYPGCIASTGLFREHIPLFRALFPPFQKYITKGYVSETESGKRLAQVVSDPSLTKSGVYWSWNNASASFENQLSEEASDVEKARKVWEISEKLVGLA	1.27 µM	–
AtPORB (Arabidopsis thaliana; S312E) (protein) QTAATSSPTVTKSVDGKKTLRKGNVVVTGASSGLGLATAKALAETGKWNVIMACRDFLKAERAAKSVGMPKDSYTVMHLDLASLDSVRQFVDNFRRTETPLDVLVCNAAVYFPTAKEPTYSAEGFELSVATNHLGHFLLARLLLDDLKKSDYPSKRLIIVGSITGNTNTLAGNVPPKANLGDLRGLAGGLNGLNSSAMIDGGDFDGAKAYKDSKVCNMLTMQEFHRRFHEETGVTFASLYPGCIAETGLFREHIPLFRALFPPFQKYITKGYVSETESGKRLAQVVSDPSLTKSGVYWSWNNASASFENQLSEEASDVEKARKVWEISEKLVGLA	–	14.4 ± 1.66 µM
AtPORC (Arabidopsis thaliana) (protein) QTVTATPPANEASPEQKKTERKGTAVITGASSGLGLATAKALADTGKWHVIMACRNFLKAEKAARSVGMSKEDYTVMHLDLASLESVKQFVENFRRTEQPLDVLVCNAAVYQPTAKEPSFTAEGFEISVGTNHLGHFLLSRLLLDDLKKSDYPSKRMIIVGSITGNTNTLAGNVPPKANLGDLRGLASGLNGQNSSMIDGGEFDGAKAYKDSKVCNMLTMQELHRRYHEETGVTFASLYPGCIATTGLFREHIPLFRLLFPPFQKYITKGYVSEEEAGKRLAQVVSDPSLGKSGVYWSWNNNSSSFENQLSKEASDAEKAKKLWEVSEKLVGLA	0.73 µM	–
